T1: chymase (native, human skin mast cell) (Homo sapiens, UniProt P23946 P23946:22-247)
T1 sequence: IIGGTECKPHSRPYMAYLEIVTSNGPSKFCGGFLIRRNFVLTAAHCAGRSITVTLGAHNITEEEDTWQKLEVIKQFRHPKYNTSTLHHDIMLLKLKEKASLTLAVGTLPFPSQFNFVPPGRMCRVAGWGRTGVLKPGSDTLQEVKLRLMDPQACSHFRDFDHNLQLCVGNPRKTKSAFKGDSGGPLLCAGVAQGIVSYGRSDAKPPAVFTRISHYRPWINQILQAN

B1: SEQ ID NO: 17(14) (mixed)
RNA: GAUGAUCGGACAUAACAUUGUUGGGGUGUCAA
modifications: idT-G(M)A(M)U(F)G(M)A(M)U(F)C(F)G(M)G(M)A(M)C(F)A(M)U(F)AAC(F)A(M)TTG(M)U(F)U(F)G(M)GG(M)G(M)TG(M)TCA(M)A(M)-S-Y (F=2'-F, M=2'-OMe; Y=Cys-Phe peptide, S=thiol)
B2: SEQ ID NO: 17(19) (mixed)
RNA: B1 RNA
modifications: idT-G(M)A(M)U(F)G(M)A(M)U(F)C(F)G(M)G(M)A(M)C(F)A(M)U(F)AsAC(F)A(M)TTG(M)U(F)U(F)G(M)GG(M)G(M)TG(M)TCA(M)A(M)-idT (F=2'-F, M=2'-OMe, s=PS)
B3: SEQ ID NO: 17(6) (mixed)
RNA: B1 RNA
modifications: idT-G(M)A(M)U(F)G(M)A(M)U(F)C(F)G(M)G(M)A(M)C(F)A(M)U(F)AAC(F)A(M)TTG(M)U(F)U(F)G(M)GG(M)G(M)TG(M)TCA(M)A(M)-idT (F=2'-F, M=2'-OMe)
B4: SEQ ID NO: 17(18) (mixed)
RNA: B1 RNA
modifications: idT-G(M)A(M)U(F)G(M)A(M)U(F)C(F)G(M)G(M)A(M)C(F)A(M)U(F)sAAC(F)A(M)TTG(M)U(F)U(F)G(M)GG(M)G(M)TG(M)TCA(M)A(M)-idT (F=2'-F, M=2'-OMe, s=PS)
B5: SEQ ID NO: 17(21) (mixed)
RNA: B1 RNA
modifications: idT-G(M)A(M)U(F)G(M)A(M)U(F)C(F)G(M)G(M)A(M)C(F)A(M)U(F)AAC(F)A(M)TTG(M)U(F)U(F)G(M)GsG(M)G(M)TG(M)TCA(M)A(M)-idT (F=2'-F, M=2'-OMe, s=PS)
B6: SEQ ID NO: 17(16) (mixed)
RNA: B1 RNA
modifications: idT-G(M)A(M)U(F)G(M)A(M)U(F)C(F)G(M)G(M)A(M)C(F)A(M)U(F)AAC(F)A(M)TTG(M)U(F)U(F)G(M)GG(M)G(M)TG(M)TCA(PHE)A(M)-idT (F=2'-F, M=2'-OMe, PHE=8-(propyl)phenyl-rA)
B7: SEQ ID NO: 17(10) (mixed)
RNA: B1 RNA
modifications: idT-G(M)A(M)U(F)G(M)A(M)U(F)C(F)G(M)G(M)A(M)C(F)A(M)U(F)AAC(F)A(M)TTG(M)U(M)U(F)G(M)GG(M)G(M)TG(M)TCA(M)A(M)-idT (F=2'-F, M=2'-OMe)
B8: SEQ ID NO: 17(5) (mixed)
RNA: B1 RNA
modifications: idT-G(M)A(M)U(F)G(M)A(M)U(F)C(F)G(M)G(M)A(M)C(F)A(M)U(F)AAC(F)ATTG(M)U(F)U(F)G(M)GG(M)G(M)TG(M)TCA(M)A(M)-idT (F=2'-F, M=2'-OMe)
B9: SEQ ID NO: 17(15) (mixed)
RNA: B1 RNA
modifications: idT-G(M)A(PHE)U(F)G(M)A(M)U(F)C(F)G(M)G(M)A(M)C(F)A(M)U(F)AAC(F)A(M)TTG(M)U(F)U(F)G(M)GG(M)G(M)TG(M)TCA(M)A(M)-idT (F=2'-F, M=2'-OMe, PHE=8-(propyl)phenyl-rA)
B10: SEQ ID NO: 17(11) (mixed)
RNA: B1 RNA
modifications: idT-G(M)A(M)U(F)G(M)A(M)U(F)C(F)G(M)G(M)A(M)C(F)A(M)U(F)AAC(F)A(M)TTG(M)U(F)U(M)G(M)GG(M)G(M)TG(M)TCA(M)A(M)-idT (F=2'-F, M=2'-OMe)
B11: SEQ ID NO: 17(7) (mixed)
RNA: B1 RNA
modifications: idT-G(M)A(M)TG(M)A(M)U(F)C(F)G(M)G(M)A(M)CA(M)U(F)AAC(F)A(M)TTG(M)U(F)U(F)G(M)GG(M)G(M)TG(M)TCA(M)A(M)-idT (F=2'-F, M=2'-OMe; printed LT(F) read as U(F))
B12: SEQ ID NO: 17(2) (ssRNA)
RNA: B1 RNA
modifications: idT-G(M)A(M)U(F)G(M)A(M)U(F)C(F)G(M)G(M)A(M)C(F)A(M)U(F)AAC(F)AU(F)U(F)G(M)U(F)U(F)G(M)GG(M)G(M)U(F)G(M)U(F)C(F)A(M)A(M)-idT (F=2'-F, M=2'-OMe)
B13: SEQ ID NO: 17(8) (mixed)
RNA: B1 RNA
modifications: idT-G(M)A(M)U(F)G(M)A(M)U(F)C(F)G(M)G(M)A(M)C(F)A(M)U(M)AAC(F)A(M)TTG(M)U(F)U(F)G(M)GG(M)G(M)TG(M)TCA(M)A(M)-idT (F=2'-F, M=2'-OMe)
B14: SEQ ID NO: 17(20) (mixed)
RNA: B1 RNA
modifications: idT-G(M)A(M)U(F)G(M)A(M)U(F)C(F)G(M)G(M)A(M)C(F)A(M)U(F)AAsC(F)A(M)TTG(M)U(F)U(F)G(M)GG(M)G(M)TG(M)TCA(M)A(M)-idT (F=2'-F, M=2'-OMe, s=PS)
B15: SEQ ID NO: 17(12) (mixed)
RNA: B1 RNA
modifications: X-S-G(M)A(M)U(F)G(M)A(M)U(F)C(F)G(M)G(M)A(M)C(F)A(M)U(F)AAC(F)A(M)TTG(M)U(F)U(F)G(M)GG(M)G(M)TG(M)TCA(M)A(M)-idT (F=2'-F, M=2'-OMe; X=Phe-Cys peptide, S=thiol)
B16: SEQ ID NO: 17(9) (mixed)
RNA: B1 RNA
modifications: idT-G(M)A(M)U(F)G(M)A(M)U(F)C(F)G(M)G(M)A(M)C(F)A(M)U(F)AAC(M)A(M)TTG(M)U(F)U(F)G(M)GG(M)G(M)TG(M)TCA(M)A(M)-idT (F=2'-F, M=2'-OMe)
B17: SEQ ID NO: 17(13) (mixed)
RNA: B1 RNA
modifications: Y-S-G(M)A(M)U(F)G(M)A(M)U(F)C(F)G(M)G(M)A(M)C(F)A(M)U(F)AAC(F)A(M)TTG(M)U(F)U(F)G(M)GG(M)G(M)TG(M)TCA(M)A(M)-idT (F=2'-F, M=2'-OMe; Y=Cys-Phe peptide, S=thiol)
B18: SEQ ID NO: 17(23) (ssRNA)
RNA: B1 RNA
modifications: idT-G(M)A(PHE)U(F)G(M)A(M)U(F)C(F)G(M)G(M)A(M)C(F)A(M)U(F)AAC(F)AU(F)U(F)G(M)U(F)U(F)G(M)GG(M)G(M)U(F)G(M)U(F)C(F)A(M)A(M)-idT (F=2'-F, M=2'-OMe, PHE=8-(propyl)phenyl-rA)
B19: SEQ ID NO: 17(4) (mixed)
RNA: B1 RNA
modifications: idT-G(M)A(M)U(F)G(M)A(M)U(F)C(F)G(M)G(M)A(M)C(F)A(M)U(F)AAC(F)ATTG(M)U(F)U(F)G(M)GG(M)G(M)U(F)G(M)U(F)C(F)A(M)A(M)-idT (F=2'-F, M=2'-OMe)
B20: SEQ ID NO: 17(17) (mixed)
RNA: B1 RNA
modifications: idT-G(M)A(M)U(F)G(M)A(M)U(F)C(F)G(M)G(M)A(M)C(F)A(M)U(F)AAC(F)A(M)TTG(M)U(F)U(F)G(M)GG(M)G(M)TG(M)TCA(M)A(PHE)-idT (F=2'-F, M=2'-OMe, PHE=8-(propyl)phenyl-rA)
B21: SEQ ID NO: 33(1) (mixed)
RNA: AUGAUCGGACAUAACUAAUUAGGGGUGUCAA
modifications: idT-A(M)U(M)G(M)A(M)U(F)C(F)G(M)G(M)A(M)C(M)A(M)U(M)AAC(M)U(F)AAU(F)U(M)AG(M)GG(M)G(M)TG(M)U(M)C(M)A(M)A(M)-idT (F=2'-F, M=2'-OMe)
B22: SEQ ID NO: 33(15) (mixed)
RNA: B21 RNA
modifications: idT-A(M)U(M)G(M)A(M)U(F)C(F)G(M)G(M)A(M)C(M)A(M)U(M)AAC(M)U(F)A(M)A(M)U(M)T(M)A(M)G(M)GG(M)G(M)TG(M)U(M)C(M)A(M)A(M)-idT (F=2'-F, M=2'-OMe)

The text below walks through data of patent publication US20210002644, “ANTI-CHYMASE APTAMER AND USE FOR SAME” (RIBOMIC INC., published 2021).

The target in one series is T1, chymase (native, human skin mast cell). In words: inhibition; angiotensin I substrate. The conditions noted are these: tags: Calbiochem Human Skin. How it is done:
(§1) The total volume of solution for an enzyme reaction in the assay was set to 50 μL, and the reaction was performed in solution C buffer. At first, native (manufactured by Calbiochem) was diluted with solution C to give 5 μL thereof. Here, the native is chymase purified from human skin mast cell. The nucleic acid was serially diluted with solution C at a concentration of 0.0027-2 μM to give 25 μL thereof. The chymase solution (5 μL) and the nucleic acid solution (25 μL) were mixed, and the mixture was incubated at 37° C. for 5 min. On the other hand, […] angiotensin I (manufactured by PEPTIDE […], INC.) was prepared in solution C to give 20 μL thereof, which was incubated at 37° C. for 5 min. The angiotensin I solution was added to a mixture of chymase and nucleic acid to start an enzyme reaction. The final chymase concentration of the reaction solution was 0.5 nM, and the final substrate concentration was 50 μM. After reaction at 37° C. for 90 min, ice-cooled 30% trichloroacetic acid solution (25 μL) was added to quench the reaction. The whole mixture was centrifuged at 4° C., 14000 rpm for 10 min, and the supernatant (30 μL) was used for the next fluorescence induction reaction.
(§2) The above-mentioned supernatant (30 μL) was added to a 96 well plate (black, manufactured by Costar), a solution (15 μL) of 2% o-phthalaldehyde (manufactured by SIGMA) in methanol and 0.3M NaOH solution (170 μL) were added to each well, and the mixture was incubated at room temperature for 10 min. Then, 3M HCl solution (25 μL) was added to quench the reaction. The plate was set on a microplate reader SpectraMax190 (manufactured by Molecular device) and the fluorescence intensity was measured at an excitation wavelength of 355 nm and a fluorescence wavelength of 460 nm.
All nucleic acids of SEQ ID NO: 17(1)-17(25) were prepared by chemical synthesis. In the evaluation of SEQ ID NO: 17(1)-17(25), a method similar to the evaluation method of inhibitory activity against chymase shown in Example 1 by using angiotensin I as a substrate was used for measurement. In the Table, the IC₅₀ value is a mean of 2 or 3 measurements.
For orientation: IC50 means the concentration needed to halve the response being measured. Higher therefore signals lower potency. B1 returned an IC50 of 0.19 nM.
Regarding B2, the IC50 was found to be 0.19 nM.
The molecule B3 displayed an IC50 of 0.14 nM. The IC50 values of the last two molecules are within 1.5-fold of each other.
The same measure, in the same setting: for B4 the value was 0.15 nM; for B5, 0.19 nM; for B6, 0.18 nM.
The same measure, in the same setting: the same measure for B7: 0.13 nM; for B8: 0.17 nM; for B9: 0.13 nM.
The same measure, in the same setting: the same measure for B10: 0.14 nM.
B11: the IC50 was determined as 0.17 nM.
B12 returned an IC50 of 0.21 nM. This IC50 and that of the molecule before are within 1.5-fold of each other.
Still for that read-out and setting: for B13 the value was 0.13 nM; for B14, 0.18 nM.
On to B15, for which the midpoint of inhibition, the IC50, lay at 0.19 nM.
B16 returned an IC50 of 0.16 nM.
Still for that read-out and setting: for B17 the value was 0.16 nM; for B18, 0.16 nM; for B19, 0.2 nM.
On the same count and under the same terms, the same measure for B20: 0.19 nM.

The target is the same in the next series. In words: inhibition; angiotensin I substrate. As to conditions: tags: Calbiochem Human Skin. The source holds these as a separate data set. How it is done:
as §1, §2
All nucleic acids of SEQ ID NO: 33(1)-33(18) were prepared by chemical synthesis. The aptamers shown by these sequences were measured by a method similar to the inhibitory activity evaluation method for chymase inhibitory activity shown in Example 1 by using angiotensin I as a substrate. In the Table, the IC₅₀ value is a mean of 2 or 3 measurements.
For the molecule B21, the IC50 amounted to 0.074 nM.
Still for that read-out and setting: the same measure for B22: 0.072 nM.
